Substrate: O=[N+]([O-])c1ccc(O[C@@H]2O[C@H](CO)[C@@H](O)[C@H](O)[C@H]2O)cc1
Assay: purified protein
Settings: pH 6.0 sodium phosphate 50 mM, 37 °C, 0.1-5 mM substrate

B1: BglF3 (Flavobacterium johnsoniae UW101) (protein)
chain: KNKMIYLSAALVFAFFTSCKNETQTSASNSSQTEEYVGKEISTDHDAEIDKLISQMTLEEKIGMLHGNSMFANAGVKRLGIPELKMADGPLGVREEISRDNWAPAGWTNDFATYYPAGGALAATWNAEMAHTFGTSLGEELRARDKDMLLSPAINMVRTPLGGRTYEYMSEDPFLNKKIAVPLVVGLQEKDVMACVKHYAANNQETNRDFVDVQIDERTLREIYLPAFEATVKEAKAYSIMGAYNKFRGEYLCENDYMLNKILRDEWGFKGVVVSDWAAVHSTAKSLKNGLDIEMGTPKPFNEFFLADKLIAAVKSGEVSEKEIDLHVKRILRVLFQVKAMGGGERAKGSIATEAHYQDAYKIAAEAIILLKNENNALPLKLDGVKSIAVIGNNATKKNALGGFGAGVKTKREVTPLEGLKNRLPSSVKINYAEGYLEKYEEKNKGNLGNITSTGPVTIDKLDPAKVQEAVEAAKKSDVAIIFAGSNRDYETEASDRRDLHLPFGQEELIKKVIEANPKTIVVMIAGAPFDLNEVSQKSSALVWSWFNGSEGGNALADVILGKVNPSGKLPWTMPKQLKDSPAHATNSFPGDKAVNYAEGILIGYRWFDTKNVAPLYPFGYGLSYTTFALDNAKTDKDSYAQNDVIEVTVDVKNTGKVDGKEVVQLYTSKSDSKITRAAQELKGFKKADVKAGGSEKITIKVPVKELAYYDVAAKKWTVEPGKYTIKLGTSSRDIKKEINFTIK
Protein B1 has a Km of 910 ± 20 µM.

— publication PMC3659600
